# Patent US20090280480A1
# T1: NM, the N-terminal and middle region of Saccharomyces cerevisiae Sup35 (soluble, unpolymerized) (Saccharomyces cerevisiae), P05453
# T1 chain: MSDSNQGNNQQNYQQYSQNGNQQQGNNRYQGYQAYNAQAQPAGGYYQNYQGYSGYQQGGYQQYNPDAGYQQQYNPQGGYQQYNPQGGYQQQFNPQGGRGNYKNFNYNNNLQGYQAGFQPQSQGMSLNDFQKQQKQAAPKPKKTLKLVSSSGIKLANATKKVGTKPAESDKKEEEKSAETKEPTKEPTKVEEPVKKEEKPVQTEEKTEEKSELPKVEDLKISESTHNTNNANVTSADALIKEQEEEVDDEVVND
# Legend:
# [1] = target: T1, NM, the N-terminal and middle region of …; assay: quaternary structure analysis of soluble NM; method not named; settings: remark: other sources report otherwise
# [2] = target: T1, NM, the N-terminal and middle region of …; assay: Microcon YM-100 (100 kDa cut off) filtration of fibrillization reactions; settings: remark: other sources report otherwise
binder,measurement,setting,value
"NM, the N-terminal and middle region of Saccharomyces cerevisiae Sup35 (soluble, unpolymerized), P05453 1-253 (protein) MSDSNQGNNQQNYQQYSQNGNQQQGNNRYQGYQAYNAQAQPAGGYYQNYQGYSGYQQGGYQQYNPDAGYQQQYNPQGGYQQYNPQGGYQQQFNPQGGRGNYKNFNYNNNLQGYQAGFQPQSQGMSLNDFQKQQKQAAPKPKKTLKLVSSSGIKLANATKKVGTKPAESDKKEEEKSAETKEPTKEPTKVEEPVKKEEKPVQTEEKTEEKSELPKVEDLKISESTHNTNNANVTSADALIKEQEEEVDDEVVND",percent monomeric after dilution out of denaturant,[1],87%
same,percent of total NM in an oligomeric state,[2],10%
